# Test: yeast display, Sf9 membrane polyspecificity reagent, FACS + sequencing; frameworks hold sequencing errors
# Procedure, shortened: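 After 36–48 hours of galactose induction, yeast (Saccharomyces cerevisiae BJ5465) displaying a synthetic nanobody library were stained at 4 °C for 1 hour with 10% biotinylated, detergent-solubilized Sf9 membrane reagent. Streptavidin microbeads enriched the stained cells before FACS sorting into low and high (top ~1%) gates on anti-HA and streptavidin fluorescence. Each clone's polyreactivity label reflects its gate of origin.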
row,Sequence,polyreactivity (PSR sort gate)
1,QVQLVDSGGGLVQAGGSLRLSCAASGSTFIYYAMGWYRQAPGKEREFVAAISYRGGSTYYADSVKGRFTISRDNAKNTVYLQMNSLKPEDTAVYYCAASYRKWNDYWGQGTQVTVSS,high polyreactivity
2,QVQLVDSGGGLVQAGGSLRLSCAASGSTFPDNAMGWYRQAPGKERALVAAIRWTGGSTYYADSVKGRFTISRDNAKNTVYLQMNSLKPEDTAVYYCNTAYTVSWRSPYDYWGQGTQVTVSS,high polyreactivity
3,QVQLVDSGGGLVQAGGSLRLSCAASGSTFRRYAMGWYRQAPGKERELVAAITTADITNYADSVKGRFTISRDNAKNTVYLQMNSLKPEDTAVYYCAAPVAYRGSRNFIYRYNYWGQGTQVTVSS,high polyreactivity
4,QVQLVDSGGGLVQAGGSLRLSCAASGSTFRVNAMGWYRQAPGKERELGAAISGSGSGTYYADSVKGRFTISRDNAKNTVYLLMNSLKPEDTAVYYCAKVPKSRGYVGGMDYWGQGTQVTVSS,low polyreactivity
5,QVQLVDSGGGLVQAGGSLRLSCAASGSTFTTNGMGGYRQAPGKERELVAAITRGGSTNYADSVKGRFTISRDNAKNTVFLQMNSLKPEDTAVYYCAAQNYWYYPRRFDYWGQGTQVTVSS,high polyreactivity
6,QVQLVDSGGGLVQAGGSLRLSCAASGSTFWFYAMGWYRQAPGNERELVAVISNSGSTYYADSVKGRFRISRDNAKNTVYLQMNSLKPEDTAVYYCNKDGGGDSYWYDYWGQGTQVTVSS,low polyreactivity
7,QVQLVDSGGGLVQAGGSLRLSCAASGSTFYFYAMGWYRQAPGKQRELVAAITWTDGDTYYADSVKGRFTISRDIAKNTVYLQMNSLKPEDTAVYYCATDSFWYEYDYWGQGTQVTVSS,high polyreactivity
8,QVQLVDSGGGLVQAGGSLRLSCAASGSTFYGYAMGWYRQAPGKERELVATISSSGAITYYADSVKWRFTISRDNAKNTVYLQMNRLKPEDPAVYYCARTGSLLSQVWYNYWGQGTQVTVSS,low polyreactivity
9,QVQLVDSGGGLVQAGGSLRLSCAASGSTSLKNAMGWSRQAPGKERELVAAISSGGSTYYADSVKGRFTISRDNAKNTVYLLMNSLKPEDTAVYYCAAKYLRGLGYWGQGTQVTVSS,high polyreactivity
10,QVQLVDSGGGLVQAGGSLRLSCAASGSTVAYYAMGLYRQPTVKERELVAAITRGGSTYYADSVKGRFTISRDNAMNTVYLHLNSLKPEDTAVYYCSAEFVVQYYVYGYTLGYDYWGQGTQVTVSS,high polyreactivity
11,QVQLVDSGGGLVQAGGSLRLSCAASGYTFDWYNRGWYRQAPGKERELVAAISASGVRTYYADSVKGRFTISRDNAKNTVYFQMNSLKPEDTAVYYCNRVYSTSRITQYEFDYWGQGTQVTVSS,low polyreactivity
12,QVQLVDSGGGLVQAGGSLRLSCAASGYTFEIYAIRWYRQAPGKERELVAAITRSGDSTYYADSVKGRFTISRDNSKNTVYLQMNSLKPEDTAVYDCNADYPGQYDSWGQGTQVTVSS,low polyreactivity
13,QVQLVDSGGGLVQAGGSLRLSCASSGNTFAGNARGWYRQAPGTERELVAAISRSGVTTRYADSVKGRFTISRDNAKNTVYLQMNSLKQEDTAVYYCNADPRLRQTRDYWGHGTQVTVSS,high polyreactivity
14,QVQLVDSGGGLVQAGGSLRLSCASSGSTFVLYAMGWYRQAPGKERELVAAITWSGDDTYYADSVKGRFTISRDNAKNTVYLQMNSLKPEDTAVYYCAAAYADWGQGTQVTVSS,low polyreactivity
15,QVQLVDSGGGLVQAGGSLRLSCASSGSTTVLYAKGWYRQAPGKEREMVAAISRSGGSTYYADSVKGRFTISRDNAKYTVYLQMNSLKPEDTAVYYCAARVPFSPYLRLFDYWGQGTQVTVSS,low polyreactivity
16,QVQLVDSGGGLVQAGGSLRLSCATSGYTFKAYAMVWYRQAPGKERELVAGISRSGGSTYYADSVKGRFTISRDNAKNTVYLQINSLKPEDTAVYYCAADSFSCETVVPSVLEFDYWGQGTQVTLSS,low polyreactivity

row,Sequence,polyreactivity (PSR sort gate)
1,QVQLVDSGGGLVQAGGSLRLSCDASGSILAQYAMGWYRQAPGKEREFVAAISRRGVRTNYADSVKGRFTISRDNAKNTDYLQMNSLKHEDTAVYYCAAALYTPSLNSAFDYWGQGTQVTVSS,high polyreactivity
2,QVQLVDSGGGLVQAGGSLRLSCGASGRIFPYNAMGWYRQAPGKERELVAAINWSGGSTYYADSVKGRFTISRDTAKNTVYLQMNSLKPEDTAVYYCAVKTVRSSSRNYWRQGTQVTVSS,high polyreactivity
3,QVQLVDSGGGLVQAGGSLRLSCHASGRIVTSNAMGWYRQAPGKERELVAAISWSGGSTYYADSVKGRFTISRDNAKNTVYLQINSLKPEDTAVYYCAAYGTKWGRGFYITGYGYWGQGTQVTVSS,low polyreactivity
4,QVQLVDSGGGLVQAGGSLRLSCSASGYIFYANTMGWYRQAPGKEREFVATISWIGSTYYADSVKGRFTISRDNAKNTVYLQMNSLKPEDTAVYYCNARYTYRRYGRYDYWGQGTQVTVSS,high polyreactivity
5,QVQLVDSGGGLVQAGGSLRLSFAASGRIFAGYAMGWYRQAPGKERELVASIRYSGGSTYADSVKGRFTISRDNAKKTVYLQMNSLKPEDTAVYYSADGVQSVYNGEPGIILEFDYWGQGTQVTVSS,low polyreactivity
6,QVQLVDSGGGLVQAGGSLRLTCAASARTFHYYAMGWYREAPGKERELVAAITSSGGSTYADSVKGRFTISRDNAKNTVYLQMNSLKPEDTAVYYCARDRYDNPYDQELDYWGQGTQVTVSS,low polyreactivity
7,QVQLVDSGGGLVQAGGSLRLTCAASGFIFGYNTMGWYRQAPGKERELVAAIDSGGSTNYADSVKGRFTISRDNAKNTDYLQMNSLKPEDTAVYYCARESDWWREFPYDYWGQGTQVNVSS,low polyreactivity
8,QVQLVDSGGGLVQAGGSLRLTCAASGGIFKRYAMGWYRQAPGKERELVAAISGRGGGTYYADSVKGRFTISRDNAKNTVYLQMNSLKPEDTAVYYCNARLSWSAFGYWGQGTQVTVSS,high polyreactivity
9,QVQLVDSGGGLVQAGGSLRLTCAASGNTFYYYAMGWYRQAPGKERELVAAINRGGNTYYADSVKGRFTISRDNAKNTVYLQMNSLKPEDTAVYYCAKRKSNPGNRQEYYYWGQGTQVTVSS,low polyreactivity
10,QVQLVDSGGGLVQAGGSLRLTCAASGSIFNHKAMGGYRQAHGKERELVAAIRFSTGTTYYADSVKGRFTISRDYAMNTVYVQMNSLKPEDTAVYYWNAQGYFTDYWLSSYFRDFDYWGQGTHVTVSS,low polyreactivity
11,QVQLVDSGGGLVQAGGSLRVSCAASGLIFTRNAMGWYRPAPGKERELVAAISSSGGSTYYADSVKGRFTISRDNAKNTVYLQLNSLKPEDTAVYYCATDAAYLFTAYDYWGQGTQVTVSS,low polyreactivity
12,QVQLVDSGGGLVQAGGSLSLSCAASGITFYRYMGLYRQGPWKSRELVASITGRGGSTYYADSVKGRFTISRDNAKNTGYLEMNSLKPEDTAVYYCAAVFPTKSSTWYDYWGQGTQVTVSS,high polyreactivity
13,QVQLVDSGGGLVQAGGSLSLSCAASGSILRYYAMVWYRQAPGKERELVAAISRSGGSTYYADSVKGRVTISGDNAKNKVYLLMNRLKPEDTAVYYCANSDFGHHVTGFGYWGQGTQVTVSS,low polyreactivity
14,QVQLVDSGGGLVQAGGSRRLSCADSGSIFGDYDMGWYRQAHGKERELVATIRYSGGTTYYADSVKGRFTISRDNAKNTVYLQLISLKPEDTAVYYCNARVWLFWTSELDSWGQGTQVTVSS,low polyreactivity
15,QVQLVDSGGGLVQAGVSLRLSCAASGSTFVGYAIGSYSQAPGKERELVAAISRSGGRTYYADSVKGRFTISRDKAKNTVYLQMNSLKPEDTAVYYCYPYYIASTFDEWGQGTQVTVSS,high polyreactivity
16,QVQLVDSGGGLVQGGGSLRLSCADSGYIFGRNAMGWYRQATGKEREFVAALSSSGSSTYYADSVKGRFTISRDNEKNTDYLQLNSLKPEDTAVDYCNAVRYYLAVPYDSWGQGTQVTVSS,high polyreactivity
